Patent US20190282673A1, “STAPHTAME ACTIVITY ON BIOFILMS” (priority 2016, published 2019)

Columns and labels:
S. aureus = experiment: P128 MIC in CAMHB and serum; type: cell-based, Staphylococcus aureus
S. haemolyticus = experiment: P128 MIC in CAMHB and serum; type: cell-based
[1] = system: multi-species biofilm (P. aeruginosa PAO1, S. aureus ATCC 700699, E. faecalis ATCC 29212); experiment: Lubbock chronic wound pathogenic biofilm (LCWPB) mixed culture model; type: cell-based; conditions: for CFU/mL of P. aeruginosa / CFU/mL of E. faecalis / CFU/mL of S. aureus: 24 h
Protocol: LCWPB media (Bolton broth, Oxoid Ltd, supplemented with 50% Bovine Plasma and 5% hemolyzed horse blood) was used for multi-species biofilm formation according to the procedure described. Sun, et al. (2008) “In vitro multispecies Lubbock chronic wound biofilm model” Wound Repair Regen. 16:805-13. Briefly, P. aeruginosa PAO1, E. faecalis ATCC 29212 and S. aureus ATCC 700699 grown on TSB agar plates were inoculated into TSB broth and grown at 37° C. in a shaker for 16 h. The cultures were individually diluted to 1×10^6 CFU/mL, mixed in equal volumes, and 10 μL was added to 3 mL of LCWPB media containing a sterile pipette tip. For biofilm formation either two (P. aeruginosa PAO1, and S. aureus ATCC 700699) or all three bacterial species (P. aeruginosa PAO1, E. faecalis ATCC 29212 and S. aureus ATCC 700699) were inoculated into LCWPB media. In this model the pipette tip acts as a surface for biofilm formation. To test the ability of P128 to prevent biofilm formation, P128 at 10, 50 and 250 μg/mL was added to the tubes and the tubes were incubated at 37° C. in a shaker for 24 h with shaking at 150 rpm. Upon completion of incubation, the tips were removed from the tubes and placed on petri plates for observation. In the absence of P128, a confluent and thick mass of biofilm could be seen. The mass of the biofilm was greater in culture tubes with 3 species than in the ones with 2 species. For enumeration of bacteria in biofilms, the biofilm formed on the tips was washed twice in PBS, transferred into clean test tubes, and again washed twice with PBS. The washed biofilm mass was then transferred to a 50 mL conical polypropylene tube and the biofilm was macerated with sterile scissors. In situations when biofilm formation was not visible, the tips alone were processed as described above. The contents were vortexed thoroughly, diluted and plated on TSA plates. The plates were incubated for 24 h at 37° C. followed by incubation at ambient temperature for 24 h to enhance pigment production.

[2] = system: S. lugdunensis stationary phase cells; experiment: P128 activity on stationary phase cells (CFU); type: cell-based; conditions: 10 μg/mL P128, 2 h
Description: (§1) Most in vitro studies examining the activity of antibiotics have been performed on rapidly dividing planktonic bacterial cultures supplemented with rich growth media. However, in infections, bacteria seldom encounter optimal conditions that allow logarithmic growth. It is likely that stationary-phase or non dividing bacteria are common in many persistent Staphylococcus infections such as endocarditis and osteomyelitis and in biofilm-associated infections (e.g., on catheters, grafts, and foreign bodies). Therefore, activity of P128 was determined on stationary phase cells of three S. aureus strains, three S. epidermidis, and two each of S. lugdunensis and S. haemolyticus strains. Briefly, the test cultures were grown overnight in LB (˜10^9 cells), centrifuged, pellet was washed and resuspended in saline. Optical density (OD600) was adjusted to 0.2 (˜10^8 CFU/mL). 100 μL of these cells were treated with 10 μg/mL P128 (in saline) and incubated at 37° C. for 2 h, 200 rpm, cell controls without proteins were maintained. Following incubation, the volume was made up to 1 mL with saline, serially log diluted in saline and plated on LB agar. Incubated at 37° C. for 18 h to enumerate residual CFU to determine cell killing.

[3] = system: S. haemolyticus stationary phase cells; experiment: P128 activity on stationary phase cells (CFU); type: cell-based; conditions: 10 μg/mL P128, 2 h
Description: as §1

[4] = system: S. epidermidis stationary phase cells; experiment: P128 activity on stationary phase cells (CFU); type: cell-based, Staphylococcus epidermidis; conditions: 10 μg/mL P128, 2 h
Description: as §1

S. lugdunensis = experiment: P128 MIC in CAMHB and serum; type: cell-based
[5] = system: S. aureus small colony variants and wild type; experiment: CFU drop assay on small colony variants; type: cell-based, Staphylococcus aureus
Protocol: Bacterial cultures were grown in LB medium at 37° C. until OD600 reached 1.0 and then diluted in LB to obtain 10^7 CFU. 100 μL of cells (10^7 CFU) in LB were treated with 100 μL of P128 (in saline) and incubated at 37° C. for 1 h, 200 rpm, cell controls without proteins were maintained. Following incubation, the volume was made up to 1 mL with LB broth, serially log diluted in LB broth and plated on LB agar. Incubated at 37° C. for 16-18 h to enumerate residual CFU and determine cell killing.

[6] = system: S. aureus small colony variants (hemB and menD mutants); experiment: Lawn inhibition assay on small colony variants; type: cell-based, Staphylococcus aureus
Protocol: Two S. aureus small colony variants viz., hemB mutant and menD mutants were characterized for SCV phenotype and auxotrophy for hemin and menadione. Both the isolates were revived on LB agar with and without Erythromycin (5 μg/mL) and Blood agar medium and incubated at 37° C. for 48 hr.
P128 was tested on both the mutants by lawn inhibition assay and the SCV's were susceptible to P128.

[7] = two species (P. aeruginosa PAO1, S. aureus ATCC 700699), P128 10 μg/mL

B1: P128: anti-staphylococcal chimeric protein: phage tail associated muralytic enzyme (TAME) cell wall-degrading region plus staphylococcus-specific binding region; SEQ ID NO: 1 (protein)
chain: MSLDSLKKYNGKLPKHDPSFVQPGNRHYKYQCTWYAYNRRGQLGIPVPLWGDAADWIGGAKGAGYGVGRTPKQGACVIWQRGVQGGSPQYGHVAFVEKVLDGGKKIFISEHNYATPNGYGTRTIDMSSAIGKNAQFIYDKKLETPNTGWKTNKYGTLYKSESASFTPNTDIITRTTGPFRSMPQSGVLKAGQTIHYDEVMKQDGHVWVGYTGNSGQRIYLPVRTWNKSTNTLGVLWGTIK
modifications: P128 chimera
Fold reduction in serum MIC (S. aureus; S. aureus MW2): 64 fold | MIC of P128 in CAMHB (S. aureus; S. aureus MW2): 8 μg/ml and (0.29) μM | MIC of P128 in Serum (S. aureus; S. aureus MW2): 0.12 μg/ml and (0.004) μM | Fold reduction in serum MIC (S. aureus; S. aureus USA 300): 64 fold | MIC of P128 in CAMHB (S. aureus; S. aureus USA 300): 8 μg/ml and (0.29) μM | MIC of P128 in Serum (S. aureus; S. aureus USA 300): 0.12 μg/ml and (0.004) μM | Fold reduction in serum MIC (S. haemolyticus; S. haemolyticus B9478): 16 fold | MIC of P128 in CAMHB (S. haemolyticus; S. haemolyticus B9478): 128 μg/ml and (4.64) μM | MIC of P128 in Serum (S. haemolyticus; S. haemolyticus B9478): 8 μg/ml and (0.29) μM | Fold reduction in serum MIC (S. haemolyticus; S. haemolyticus B9511): 32 fold | MIC of P128 in CAMHB (S. haemolyticus; S. haemolyticus B9511): 8 μg/ml and (0.29) μM | MIC of P128 in Serum (S. haemolyticus; S. haemolyticus B9511): 0.25 μg/ml and (0.008) μM | 24 h P128 MIC for serum time-kill (S. haemolyticus; S. haemolyticus, fetal calf serum): 0.25 µg/mL | Prevention of biofilm formation ([1]; P128 1×MIC (10 μg/mL)): prevented the formation of biofilms | CFU/mL of P. aeruginosa ([1]; three species (P. aeruginosa PAO1, S. aureus ATCC 700699, E. faecalis ATCC29212), P128 10 μg/mL): 2.2 × 10^5 CFU/mL | CFU/mL of E. faecalis ([1]; three species, P128 10 μg/mL): 9 × 10^5 CFU/mL | CFU/mL of S. aureus ([1]; three species, P128 10 μg/mL): 2 × 10^4 CFU/mL | CFU/mL of E. faecalis ([1]; three species, P128 50 μg/mL): 1.8 × 10^4 CFU/mL | CFU/mL of P. aeruginosa ([1]; three species, P128 50 μg/mL): 7 × 10^4 CFU/mL | CFU/mL of S. aureus ([1]; three species, P128 50 μg/mL): 2 × 10^3 CFU/mL | CFU/mL of E. faecalis ([1]; three species, P128 250 μg/mL): 1.6 × 10^4 CFU/mL | CFU/mL of P. aeruginosa ([1]; three species, P128 250 μg/mL): 1.7 × 10^5 CFU/mL | CFU/mL of S. aureus ([1]; three species, P128 250 μg/mL): <10 CFU/mL | CFU/mL of P. aeruginosa [1, 7]: 2 × 10^6 CFU/mL | CFU/mL of S. aureus [1, 7]: 2.2 × 10^5 CFU/mL | CFU/mL of P. aeruginosa ([1]; two species, P128 50 μg/mL): 1.5 × 10^5 CFU/mL | CFU/mL of S. aureus ([1]; two species, P128 50 μg/mL): 1.8 × 10^5 CFU/mL | CFU/mL of P. aeruginosa ([1]; two species, P128 250 μg/mL): 8 × 10^5 CFU/mL | CFU/mL of S. aureus ([1]; two species, P128 250 μg/mL): 2 × 10^3 CFU/mL | CFU/mL, P128 treated ([2]; S. lugdunensis B9474 stationary phase): 4.9 × 10^2 CFU/mL | CFU/mL, P128 treated ([2]; S. lugdunensis B9475 stationary phase): 2.7 × 10^4 CFU/mL | CFU/mL, P128 treated ([3]; S. haemolyticus B9478 stationary phase): 1.1 × 10^3 CFU/mL | CFU/mL, P128 treated ([3]; S. haemolyticus B9479 stationary phase): 6 × 10^2 CFU/mL | CFU/mL, P128 treated ([4]; S. epidermidis B9467 stationary phase): 3.7 × 10^2 CFU/mL | CFU/mL, P128 treated ([4]; S. epidermidis B9470 stationary phase): 1.5 × 10^2 CFU/mL | CFU/mL, P128 treated ([4]; S. epidermidis B9472 stationary phase): 7 × 10^1 CFU/mL | Fold reduction in serum MIC (S. lugdunensis; S. lugdunensis B9476): 8 fold | MIC of P128 in CAMHB (S. lugdunensis; S. lugdunensis B9476): 4 μg/ml and (0.14) μM | MIC of P128 in Serum (S. lugdunensis; S. lugdunensis B9476): 0.5 μg/ml and (0.017) μM | Fold reduction in serum MIC (S. lugdunensis; S. lugdunensis B9510): 32 fold | MIC of P128 in CAMHB (S. lugdunensis; S. lugdunensis B9510): 16 μg/ml and (0.58) μM | MIC of P128 in Serum (S. lugdunensis; S. lugdunensis B9510): 0.5 μg/ml and (0.017) μM | 24 h P128 MIC for serum time-kill (S. lugdunensis; S. lugdunensis, fetal calf serum): 0.50 µg/mL | Reduction in CFU of SCV strains [5]: more than 4 log | CFU/mL, P128 treated ([5]; S. aureus USA 300 (wild type), 1 h): 4.5 × 10^2 CFU/mL | CFU/mL, P128 treated ([5]; hemB small colony mutant NR48387, 1 h): 3.0 × 10^1 CFU/mL | CFU/mL, P128 treated ([5]; menD mutant small colony mutant, 1 h): 1.2 × 10^3 CFU/mL | Lawn inhibition [6]: susceptible
